The values below come from paper PMC7721913.

In the assay the target is HA-SFPQ (human) (UniProt P23246). Description: co-IP.
Sequence of HA-SFPQ (human) (P23246 whole entry): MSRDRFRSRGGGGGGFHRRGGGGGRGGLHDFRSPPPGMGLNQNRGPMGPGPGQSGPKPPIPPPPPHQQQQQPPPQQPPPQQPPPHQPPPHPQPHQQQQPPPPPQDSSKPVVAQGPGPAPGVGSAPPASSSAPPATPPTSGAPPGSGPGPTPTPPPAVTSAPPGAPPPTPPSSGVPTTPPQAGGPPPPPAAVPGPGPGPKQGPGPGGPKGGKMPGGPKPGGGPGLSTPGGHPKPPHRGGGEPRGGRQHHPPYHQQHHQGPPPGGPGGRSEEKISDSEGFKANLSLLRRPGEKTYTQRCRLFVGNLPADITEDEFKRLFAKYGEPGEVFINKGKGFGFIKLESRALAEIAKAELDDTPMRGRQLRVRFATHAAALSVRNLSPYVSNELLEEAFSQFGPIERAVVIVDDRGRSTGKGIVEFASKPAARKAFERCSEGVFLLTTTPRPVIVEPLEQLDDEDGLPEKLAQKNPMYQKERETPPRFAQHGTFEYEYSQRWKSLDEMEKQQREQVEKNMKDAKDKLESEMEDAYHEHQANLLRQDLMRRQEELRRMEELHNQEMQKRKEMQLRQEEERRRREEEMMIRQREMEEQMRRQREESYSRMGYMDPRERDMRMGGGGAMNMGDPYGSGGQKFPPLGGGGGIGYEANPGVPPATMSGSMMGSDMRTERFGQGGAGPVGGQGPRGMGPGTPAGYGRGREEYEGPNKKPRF

Sequence of Myc-KLC1 ΔTail (domain or fragment) (O88447 whole entry, stated change not applied, the tested form may be a part): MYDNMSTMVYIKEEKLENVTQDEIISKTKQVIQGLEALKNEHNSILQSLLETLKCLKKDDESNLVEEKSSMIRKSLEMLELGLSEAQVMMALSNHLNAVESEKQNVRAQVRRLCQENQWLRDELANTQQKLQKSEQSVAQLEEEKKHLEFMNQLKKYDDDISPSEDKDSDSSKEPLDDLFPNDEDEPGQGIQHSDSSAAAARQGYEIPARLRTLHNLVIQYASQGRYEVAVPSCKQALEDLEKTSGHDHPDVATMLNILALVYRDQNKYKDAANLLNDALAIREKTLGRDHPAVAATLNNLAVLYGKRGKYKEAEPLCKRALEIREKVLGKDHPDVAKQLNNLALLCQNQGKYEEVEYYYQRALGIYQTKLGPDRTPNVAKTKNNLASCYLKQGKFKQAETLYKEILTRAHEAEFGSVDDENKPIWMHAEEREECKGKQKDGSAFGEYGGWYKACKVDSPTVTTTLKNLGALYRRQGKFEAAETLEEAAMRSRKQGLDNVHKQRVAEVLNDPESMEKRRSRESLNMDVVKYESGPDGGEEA

Consider Myc-KLC1 ΔTail (domain or fragment), for which the reduction of binding against WT KLC1 came out at 50%.
